Test: label from the status in PepcDB records

Sequence: MTQAFSRVRFIMTQPSHPGNVGSAARAIKTMGFGELVLVAPRFPDMTAQPEAVALASGALDVLERAAVHDTLEEALAPVTLAFALTARVRDLGPPPCDIREAAGLARRHLDDTEAGVVAIVLGTERAGLTNAQIELCHRICHIPANPQYSSLNVAQALQLAAWELRYALLAGTGQPLLPASSAQQANPGAAPADGAAVQALLAHWEQALVAVGFLDPAHPKKLMPRMKHLLTRSALSRDEVDMLRGVCTAMIAPNRPK
- protein production: failed

Sequence: MASGKSIMGGLPPLKPGEKLPRLQTVIATSPENPAGDPNIRPQQAGEAAGKVIGGGLGVLLVTVCVLLLLGPVLWAPGWAGLRVARFLSGPWQPWLAGFAAFVAVAVLQTFLLIQRHPALRYPIVTLFSVLWVGGLWLEFNSPRHDWVTTAPTLQMPGPWSWALIISGSVVYAGIYLLALAPVGKSRWARRWQLLK
- protein production: failed

Sequence: MFCTFFEKHHRKWDILLEKSTGVMEAMKVTSEEKEQLSTAIDRMNEGLDAFIQLYNESEIDEPLIQLDDDTAELMKQARDMYGQEKLNEKLNTIIKQILSISVSEEGEKELKSNRIFISWLRWPLFIRIGVIILCLILLFGQIIYILEPKQFTSVFEGIWWAVVTVSTVGYGDYVPHTPLGQAAGILLILSGASFVTAYFATLSAAAFSRQHRYIEGKVAYKGRDHIILIGWNEKTNRLLKDLQLGAPSKTVVLIDESLTEGPLIENVHFIRGHAADDGTLKRANITEAESVMITADQYKSETDADMLSVLTLLSVKGLNPLAYCIVEILTDRFVTNAERAGANQIIGTSEFISRAMLQHYQVKLRRLNSRTESS
- protein production: failed

Sequence: MKTYTSVIFWMRTIACLSIVLIHSITTTFSKMDFLGHGTAIRVFQLMLMFSTPLFVFISEFLLAKNYQVKTKPGFFKNKLIYLGIPYIIINIGIALFYFESKTFDQFMTHLGDTMFHGGAVTYFIVIIFQFYILHILFAKYLIKWKPVPVIIGAVIFATIYWAFRQYAPQSEHPILGLFWEREGWMLFLGWISYFLLGFYTGIYYETFMKKIKKYTWPIIIGAIIATSILVDNYLFGISTWVESKRFDIPFYVKMVILVFFLFASYVKYVPKFILFISNYSFCIYLIHYFFVHELGLLRAASSLRNIAFNFIITLTVSICLAYIFNLSKYGKFIVGGIGHIKYDKVYESYKHGKMD
- protein production: failed

Sequence: MEVSHVTLEPNKDSRPAVLTIGKFDGVHLGHQTILNTALSIKKENEILTAISFSPHPLWALKQIEIYREMLTPRMEKERWLAHYGVDHLIETAFTPRYAETTPEEFVTDHLSNLQLSHIIVGSEFNFGKGRDSDVDLLRDLCKPYGIGVTSVPVIETNQTKISSTNIRAFIRRGHFLEAEQLLGHP
- protein production: failed

Sequence: MKAKLENRLERQLQQLSYARGLILDEIGYLPMTSEEASLFFRLLNRRYEKASIILTSNKGFADWGEMFGDNVLATAILDRLLHHSTTLNIKGESYQLKEKRKVGALTKSATPISEDEMAESGQQK
- protein production: failed

Sequence: MLEKNKPENHATDKHGLLSAPIPETLRKMTVPMTMGMIAILMFNLVDTFFISLLGTHALAAISYTFPVTFAVNCITMGIGMGLSTNIGRLLGQGHAPQAARFTTHGLLLAVLLVAIASSIGFATIAPLFRFLGATDDLIPLIEQYMQVWYLTIPLLVIPMAGNSAIRATGDTKTPAKIMMLAGLINGMLDPLLIFGYGPFPELGIQGAAIASAFSWLGALCGSFYVLVKREKLLAQPQWASLKQDWQQTLKIGTPAALSNAMNPLSGAILMMLLSSHGTAAVAAYGAAQRIESILILVLMSLTSALTPFMAQNLGAKNPQRAFSGLFLSMRFAVVFQGFIFLMMVPLSIPLAALFSQEETVKNLLWHYLLVVPFSYGFQGIVMMLVSGLNAMHKPLRAFQWSFMRLFVFTLPAAWVGSQVYSIEGLFIGIALGNTLGGLLGYMFALRERKLTLIEQNSAS
- protein production: failed

Sequence: MSINLQLETPRLLLREFQNSDKVAFAAYRSDPGTAKYQSWDTPYSEAQAEAFIESLQHLTSSILGEWYQLAIELKSTRQIIGDCAFCILAEDGKQGEIGFTLARKYQGNGYGTEAVIFLLNYLFNHLNLHRVRANCDPENLASIKLLERVGMRLEGRFIKSLWFKNNWVDEMWFAILQDEFTAVNV
- protein production: failed

Sequence: MPIEIITDSGADLPQSYIREHRIAFLPLVVHWNGQDYKDGITIEPKQVYDAMRQGHTVKTAQPSPLAMKELFLPYAKENRPCLYIAFSSKLSGTYQTAMAVRSELLDEYPEFRLTIIDSKCASLGQGLAVMKAVELAKQNTPYNLLCETIESYCRHMEHIFTVDNLDYLARGGRISKTAAAFGGLLNIKPLLHVEDGALIPLEKWRGRKKVLKRMVELMGERGDDLQKQTIGISHADDEETALELKQMIEETHGCTRFFLSDIGSAIGAHAGPGTIALFFLNKYIEI
- protein production: not failed

Sequence: MKEKVVSLAQDLIRRPSISPNDEGCQQIIAERLEKLGFQIEWMPFNDTLNLWAKHGTSEPVIAFAGHTDVVPTGDENQWSSPPFSAEIIDGMLYGRGAADMKGSLAAMIVAAEEYVKANPNHKGTIALLITSDEEATAKDGTIHVVETLMARDEKITYCMVGEPSSAKNLGDVVKNGRRGSITGNLYIQGIQGHVAYPHLAENPIHKAALFLQELTTYQWDKGNEFFPPTSLQIANIHAGTGSNNVIPAELYIQFNLRYCTEVTDEIIKQKVAEMLEKHNLKYRIEWNLSGKPFLTKPGKLLDSITSAIEETIGITPKAETGGGTSDGRFIALMGAEVVEFGPLNSTIHKVNECVSVEDLGKCGEIYHKMLVNLLDS
- protein production: not failed

Sequence: MFPSRRKAAQLPWEDGRSGLLSGGLPRKCSVFHLFVACLSLGFFSLLWLQLSCSGDVARAVRGQGQETSGPPRACPPEPPPEHWEEDASWGPHRLAVLVPFRERFEELLVFVPHMRRFLSRKKIRHHIYVLNQVDHFRFNRAALINVGFLESSNSTDYIAMHDVDLLPLNEELDYGFPEAGPFHVASPELHPLYHYKTYVGGILLLSKQHYRLCNGMSNRFWGWGREDDEFYRRIKGAGLQLFRPSGITTGYKTFRHLHDPAWRKRDQKRIAAQKQEQFKVDREGGLNTVKYHVASRTALSVGGAPCTVLNIMLDCDKTATPWCTFS
- protein production: failed

Sequence: MARKKAMKVLRKQKKRENMQRFTQKQNIGRACLTAKEFRLLQRMSHSSKALRNVGLYTMKQSYLNHNRMATVKEVDTAMQNDMNYSGIQSNSVQAIRRSLFTEVKSFFKALEQWKKNPEKFTGRPKFPNYSRSTDKRIIEIYQVPKVDENGYWIIPMNVAFRKKFGSIQIRMPKNLRNKKISYIEIVPKQKGRFFEVHYTYEMHVSQMKKPSTTTSNALSCDLGVDRLVSCVTHTGDAFLIDGKKLKSINQYFNKMICNLQQKNMDNGISKRIVTNKMAALWHKRERQINGYIAQTVGLLFKKVKEFDIDTIVIGYNAGWKQNSHMGKKNNQKFVQIPFQKLMAAIENKCIKEGIRFFKQEESYTSKASFLDKDPVPVWSKNDRTQYRFSGKRITRGLYQSKAGTCIHADINGAMNILKKSGVVELDDNLKVKTPILLEVQKRKAIASRIA
- protein production: failed

Sequence: MSLHPVSISLSSYGADLVRSRGQASFLPLLAMAGAQRVELREELFAGPPDTEALTAAIQLQGLECVFSSPLELWREDGQLNPELEPTLRRAEACGAGWLKVSLGLLPEQPDLAALGRRLARHGLQLLVENDQTPQGGRIEVLERFFRLAERQQLDLAMTFDIGNWRWQEQAADEAALRLGRYVGYVHCKAVIRNRDGKLVAVPPSAADLQYWQRLLQHFPEGVARAIEYPLQGDDLLSLSRRHIAALARLGQPQEERQHG
- protein production: not failed

Sequence: MKMANHPRPGDIIQESLDELNVSLREFARAMEIAPSTASRLLTGKAALTPEMAIKLSVVIGSSPQMWLNLQNAWSLAEAEKTVDVSRLRRLVTQSTP
- protein production: not failed

Sequence: MRLTKLAATIGCVTLSGLALVACSSDSTAGTDAVAVGGTFQFHSPDGKMEIFYDEADRQQLPDIGGDSLMEEGTQINLSDFENQVVILNAWGQWCAPCRSESDDLQIIHEELQAAGNGDTPGGTVLGINVRDYSRDIAQDFVTDNGLDYPSIYDPPFMTAASLGGVPASVIPTTIVLDKQHRPAAVFLREVTSKDVLDVALPLVDEA
- protein production: not failed

Sequence: MTEYNIALVGFGGVNRALAQLIAERNQAWKKQLGFSLKIVGISDLFLGSIVASQGLDAGLLSKLPATKGALAQLPGGQVEALNEQVIKDSGADIIAEATFTNPVDGEPASTFCRWALEQGKHVVTTNKGPIALHSAELKALAQRNLAAFEYEGAVMSGTPVIRMAKQSLAGSGLLGFEGILNGTSNFVLTRMEAGLGFAEAVAEAQALGYAEADPSADVEGFDVRLKVVILANELLDAQLTVSDVSCRGISGLTVKDLEQARAEGARWKLIGSAQRLADGSLQASVEPRLLPLAHPLAGIGGAINAVSFNTELLGAVTVSGPGAGRIETAFALLSDIIHIHQSRLAR
- protein production: failed

Sequence: PVNQVQSSVSWPQNGSLNSVSAPLMSYTPISFDAKIPVASVDKLRKDQDLILGTLPANSEDAGARGLFVRANDDGLQITSHGELVLDLSKRELAQLPADATIAISATEDETTAGIEGDDSTTETVERDVRPIIMGIYTELESNAAADLLNAGLNAHVEINSRFTSSPTLAKYAS
- protein production: not failed

Sequence: FYTNRTVVKLMTMIMAPQPGESVYDPTCGSGGLLLNCALHLKDEGKEYRTLKLYGQEINLLTSAIARMNMFMHGIEEFDIVRGNTLSNPGLLENDELKKFNVILANPPYSIKSWDRKAFESDPYGRNVWGTPPQGCADYAFQQHIQKSLDLGNGRSISLWPHGILFRDAETAMRRKMIEQDQVECVIGLGPNLFYNSPMEACLLITKTNKIESKKDKILFINAVKEVRQDKNIGYLDQVHIDKIFNAYNKFENED
- protein production: failed

Sequence: MAVYANTSVQDFYEFWLEEVKKKSLSYNSYYSFKKTVQNYILPLYGRLSMGKLRKNHVKRIYKKTYETSPSVAKIVKTVLTTSFKYALRYGYVEEDYVTGLKWNRVILEHHHHHH
- protein production: failed

Sequence: MKVLDSRDFAKVKAIAIERASYRNIGALAVYIGSMTGMRISEVLALTWPDIDTKLCVIHVTRSWDHLYGTGFKPTKTDSSVRDIEISPSVIELLNKIHQEQAASYLRTGYRDEDQMIMRDPRHNVITDSACNKALHVIQNKAGIPEDKQITFHGLRHSHVSYLISKGVDIYYISKRLGHSDVTITMKVYGHLLDSQRKQEAHKAVLFMDQILEHHHHHH
- protein production: failed

Sequence: MGQMFGVACIDEQSGIVGQAWNNNSVRYISIDEDAVITIQSGPVVGKVAVSNDKTLAYGATINGANTVYVYKKSQAWVPSRLSDISSGTDVWAVALNGDNQWLYYVTANGRLGRIEVDNPTHNEILFEHNDFSGGPFAYIAYSAFEDCFYVTTDKNKILKVWVKEDGTHAYEQINQNNTGTTDGFLADEAKFQYLRGLTIDEDGNIFVCQGDNSHVIRKIAYDENMEKRYVTTVLGTSTVHGTDDGSPDIALFNGPQDISYDGNGGYWIAMRYEPALRKYSIELEHHHHHH
- protein production: failed

Sequence: MKQKELWINQIKGLCICLVVIYHSVITFYPHLTTFQHPLSEVLSKCWIYFNLYLAPFRMPVFFFISGYLIRRYIDSVPWGNCLDKRIWNIFWVLALWGVVQWLALSALNQWLAPERDLSNASNAAYADSTGEFLHGMITASTSLWYLYALIVYFVVCKIFSRLALPLFALFVLLSVAVNFVPTPWWGMNSVIRNLPYYSLGAWFGATIMTCVKEVPLRRHLLMASLLTVLAVGAWLFTISLLLSLVSIVVIMKLFYQYEQRFGMRSTSLLNVIGSNTIAIYTTHRILVEIFSLTLLAQMNAARWSPQVELTLLLVYPFVSLFICTVAGLLVRKLSQRAFSDLLFSPPSLPAAVSYSR
- protein production: failed

Sequence: MDFAYSPKVQELRERVSAFMEAHVYPAEAVFERQVAEGDRWQPTAIMEELKAKAKAEGLWNLFLPESEYGAGLANHEYAPLAEIMGRSLIGPEPFNCAAPDTGNMEVLVRYGSEEQKRTWLEPLLSGEIRSAFAMTEPGVASSDATNMEARAERQGDDWVINGRKWWTSGACDPRCKILIFMGLTNPDAPRHQQHSMILVPVDTPGVKILRPLPVFGYDDAPHGHAEVLFENVRVPYENVILGEGRGFEIAQGRLGPGRIHHCMRSIGMAERALELMCKRAVSRTAFGKPLARLGGNIDHIADSRMEINMARLLTLQAAYMMDTVGNKIAQSEIAQIKVVAPNVALKVIDRAIQMHGGAGVSNDFPLAYWYAMQRTLRLADGPDEVHRAAIGKFELGKYVPREML
- protein production: failed
